# Results published in the supplement of paper PMC12042874.
# ± gives the uncertainty stated by the source.
# Assay: amyloid nucleation score (Sup35N fusion, yeast selection) (log enrichment); library NNK3; higher = more nucleation; inactive = no reads after selection
# Procedure, shortened: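 Sup35N was fused to peptides of 20 random codons and expressed in psi-negative yeast, which were induced with 100 μM copper sulfate for 24 hours and then grown on medium lacking adenine and uracil for 7 days at 30°C. Plasmid inserts from input and output were sequenced on Illumina. The nucleation score is the DiMSum log enrichment of output over input reads, centred on the mode score of non-aggregating sequences. Sequences with under 100 input reads were left out, and random libraries had three technical output replicates.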
row,Substance,amyloid nucleation score
1,STVYSRHIKTDLTNCCKFFY,-0.657 ± 0.98
2,MPSRCMLDSTIILYYWRFEH,0.781 ± 0.28
3,SLRNRLVVTSVDYRMHLRRG,inactive
4,TLVLVTRQLSFCRMDSRIEF,inactive
5,FNTIAIDTSLVGSNYAGATK,inactive
6,FSTQRLNG,inactive
7,HLMFCNHMALCVFFLQQEF,2.21 ± 0.074
8,RFNSWRSCIWLM,inactive
9,RDISIFRFRYTRRSWWLSFG,inactive
10,CFVFWKSRQIYWMMMSRCVV,inactive
11,LNCNSESMLPLYNMVWRNRN,inactive
12,FYCFIPGMSVMAPFVTSYYY,1.91 ± 0.053
13,FAGCLGHPLERYVHLAWV,inactive
14,IVSKMAVYMAGTSALVLPLL,-0.086 ± 0.88
15,MAFGWWLDSMLYFITDALVP,inactive
16,HFCPVRKGGAGIRYFYCSCW,1.7 ± 0.12
17,NPRHGYLPTIIGLDHSIHDL,inactive
18,CFSYGMWNSLPRWLALN,inactive
19,RFDESTRVCV,inactive
20,QISEFKDVLLCVCVKISLGR,1.7 ± 0.09
21,PYNVSLFMLRMVSIFFVQHL,inactive
22,TCWCGVRIFFGPQLASSVWL,inactive
23,HWKLHALGRWAGQGFTR,inactive

row,Substance,amyloid nucleation score
1,TYEEGRRQCSRAPMDSYVQS,inactive
2,ILLIWCIFTSAKFQQTSFMT,inactive
3,DSNVRSFVSMLSVN,inactive
4,TCCLIF,1.87 ± 0.073
5,MLLVLR,0.972 ± 0.1
6,SLSYTRCCQNTILIKRYGLE,inactive
7,KTSAVRLATNIVLTFHSILY,inactive
8,NMQVHFIMCARSRLQGNHVS,inactive
9,SRFYETDYSYFSIKSYDAGG,inactive
10,SSLSDSDGSFLDIMGAYYWA,inactive
11,SWKVTMKPGNFWV,inactive
12,HRPRLGI,inactive
13,QEVAMRAISLSLPARWSVPC,inactive
14,DECVYLFKNSYSVIILMFFK,inactive
15,VSSLR,inactive
16,SFFTKADAGMPDLRSFMESC,inactive
17,WLFSTSI,inactive
18,FVGNGWSNFSL,inactive
19,LFWSNLWRRDMNISVSNYWL,1.69 ± 0.11
20,CHAIASVVSEYNGPLVVTVI,inactive
21,FEERHCGANWFGSYVIGRWR,0.798 ± 0.21
22,CGSRLYRCETAMMVLRIRSG,inactive
23,IEFFEYVCVMFFCC,inactive

row,Substance,amyloid nucleation score
1,LIDMFIFNARVSNGDFYCPN,0.718 ± 0.13
2,VRNRSFGTALDNELLNLRPR,inactive
3,VNCWTNYRYQGSDFIMSYIR,inactive
4,LSYSAGEIRCVGSCWANESL,inactive
5,HNNTIVASWRHDNRACA,inactive
6,SGVMNWKT,inactive
7,IANLRAFILFMCDMKSTNPK,inactive
8,KWNHYWDIVFCTSYFNSTFM,2.29 ± 0.066
9,CNWINLNIRSVRIYHPYSRF,1.54 ± 0.072
10,EKFNCNVFIANWAK,0.358 ± 0.36
11,WGLGFFAI,inactive
12,KRLHTS,inactive
13,NYNYNRSAHSGCPPGLEGVM,inactive
14,KLPGLFQLCDMCVIGLKNAY,0.513 ± 0.17
15,SSYYISNVSMPTFSEFVVTL,inactive
16,VVGIKV,inactive
17,YVPIRSFVGEVLGSGDR,0.157 ± 0.59
18,LTSPFDPISLPKS,inactive
19,YDVSRDATDCRVYCCPFSRS,1.23 ± 0.1
20,FICERMRRIVESNVDLLGFY,-0.359 ± 0.32
21,RRYSRIRYRRKLVNWLFYIM,inactive
22,IMSKVASDALIPVTSSMSTG,inactive
23,PRYFSRASSKNSRF,inactive

row,Substance,amyloid nucleation score
1,CFSYSLGVLVTYRGCYRSVL,inactive
2,GKISVMYEMIYNLTNYDGRL,inactive
3,FWEYVRKLIEYEYLGSR,inactive
4,NNCEVNLCSLELPWKTKLMM,0.264 ± 0.85
5,QAFDFTHHPFHDRSWNGHWS,inactive
6,FWNRWVVQVDSLSMRMSRVA,inactive
7,WMNGISKL,inactive
8,IALLLQSQLMRHGGFASWNR,inactive
9,YASYFSWEDCHG,inactive
10,RLIWFE,inactive
11,FMNCWQRAGVRSLGVYGNSA,0.13 ± 0.45
12,LLANDSWF,inactive
13,LPAGVFTDSACVVVSANKAT,inactive
14,VWGIRFLLVWNRGHAGYSLN,inactive
15,VIAVSYNFTWFKTSIFN,1.31 ± 0.11
16,ISSLGKKTW,inactive
17,VGLFASPDRRYRMIAFVPGL,inactive
18,TLYFFKYFWMFVVMCKINKA,inactive
19,SVSLCFYFGIDYRILLMPEN,0.088 ± 0.73
20,YLAPHMSATVVLDNEFGPES,inactive
21,RSFHNHHWTVNY,1.46 ± 0.11
22,IGKSRFKCMSVVRSRFT,inactive
23,VTPVFMIWAS,inactive

row,Substance,amyloid nucleation score
1,VYLHYLTREVSDYLMWWFRV,inactive
2,NRRVCYSLISMGIVLVCRYG,0.306 ± 0.22
3,FQIWCIFYLNMS,2 ± 0.095
4,LRCHLRKGSRISRSL,inactive
5,VYVLFRLCNNRFRKELIATL,inactive
6,NPGRYRGGRTAHIFPERDIR,inactive
7,LFNDLVAHKGPDYITYATCV,inactive
8,LCECR,inactive
9,NMLKAASKTVKG,inactive
10,SLCFIWTCMSLVVHTALSVH,inactive
11,IALKSGMVCRYRYHIGGRIS,inactive
12,YGFFKAARRMRIS,inactive
13,FVRIYNFILLAV,inactive
14,SSKASSFVFMACGPGTEVIG,inactive
15,KMLQLVVGIRILVNRMSWSR,inactive
16,SDFFTLSS,inactive
17,SRLIIVPCCLL,0.478 ± 0.28
18,RGNIWIHKK,0.404 ± 0.15
19,MPFGYICWIGVCFSHD,1.96 ± 0.081
20,LQRTWLKVFGASCFICDDFL,1.99 ± 0.097
21,FDFASFGKWVVVRFKCKTFT,inactive
22,FNLGRVMFLRSLRWCQGLLV,inactive
23,VNIGTIWETDKCMEIFCAAA,inactive

row,Substance,amyloid nucleation score
1,LYISNFANEINA,inactive
2,SDRFHVAHNNFLMRGKGFRT,inactive
3,VSSTALGGNNSICHLSPFYT,inactive
4,LFEHLRW,0.685 ± 0.2
5,NPLDSLYLIDIFAHSSASEL,inactive
6,YMLLSVDILSYMPMTVVAEQ,inactive
7,ITIFDRMNH,inactive
8,TNGKPFYFPLAVMMSG,inactive
9,SSGVTVDGSMCRI,inactive
10,PNGLKTGGETRGRFYKCYMY,inactive
11,KYPSYLNLSCVAVKYVWCSE,1.94 ± 0.071
12,EGFWMNAPGGRISYSINWIA,inactive
13,SIDHVLWYNIGRVGSCWSLR,-0.188 ± 0.27
14,FICILIISKGSIVPFFLRHR,inactive
15,FCHVRMLAISTIYGSSVEVF,inactive
16,MCRMRSW,inactive
17,HITLRYLNL,0.692 ± 0.12
18,IIQDYGTVVD,inactive
19,SSLLYIDRIVLSRTVIPMLL,inactive
20,MGSGGYNIITDGQSFFSTMA,inactive
21,GPHIVRYERTFNG,inactive
22,RCVLSNSNLCFKFFRVQTME,inactive
23,TLSSKDVYMFLDS,inactive

row,Substance,amyloid nucleation score
1,VSQYSVLGVAWSELFRTVD,-0.064 ± 0.26
2,ADFTRGGT,inactive
3,NWVQSSMNQ,inactive
4,IEGTAMTVTFTFNPYPFHET,inactive
5,NIIDKW,-0.357 ± 1.4
6,VVMYIRANPTDIYSYTLQPR,1.56 ± 0.12
7,RKFDPSISGSCWNVGISCVV,inactive
8,SYRYNRLYHWVHDLLCSTLV,inactive
9,IHGPGCRSCERSSVGLRSGL,inactive
10,YGNFF,inactive
11,LPLFRISAPMVMYVLLYVPW,inactive
12,FDVKDWPSNNWRSLGNSRVC,inactive
13,MDVYLRCSGYILTPKMAWSQ,inactive
14,CIQSMRH,inactive
15,RWNLDWSSLSAGHGKYSQEY,inactive
16,SPGLMRYRRTPLAKSLPWMK,inactive
17,PFSRYPVGCLGVSPYRVISS,inactive
18,MAKVLHNWFFDRYRFVMFIG,inactive
19,FSIWKV,inactive
20,DLFLKLSCDSRI,inactive
21,HLVCYLWE,1.71 ± 0.093
22,WYAKWKVN,inactive
